{"source": "the RNAGym collection of RNA variant scans (doi:10.1073/pnas.2313332121)", "parents": {"B1": {"name": "TPR 5TU (parent)", "chain": "GGAUCUUCUCGAUCUAACAAAAAAGACAAAUCUGCCACAAAGCUUGAGAGCAUCUUCGGAUGCAGAGGCGGCAGCCUUCGGUGGCGCGAUAGCGCCAACGUUCUCAACUAUGACACGCAAAACGCGUGCUCCGUUGAAUGGAGUUUAUCAUG"}}, "note": "This sample holds only a part of the variants without activity."}
{"variants_of": "B1", "assay": "polymerase ribozyme fitness, log enrichment relative to wild type (log ratio); higher = more active; in vitro selection for triplet polymerase activity", "outline": "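After PCR construction and transcription, each subunit's mutant library from a heterodimeric triplet polymerase ribozyme was annealed with a biotinylated primer, the partner subunit and triplets. Incubation was frozen, at −7 °C, and extended constructs were gel-excised, bound to streptavidin beads and amplified by RT-PCR, in one selection round done in triplicate. Fitness is the logarithm of a genotype's enrichment divided by that of the wild type, from inverse-variance-weighted replicate averages of Illumina-sequenced inputs and outputs. The base of the logarithm is 2, and genotypes needed ≥10 input reads and ≥1 read per output.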"}
{"variant": "A28G G80A G141A", "polymerase ribozyme fitness (log ratio)": "≤ -4.2"}
{"variant": "C27U C36A C108G U139G U145C", "polymerase ribozyme fitness (log ratio)": -3.87}
{"variant": "C27G G58A C93A C95G", "polymerase ribozyme fitness (log ratio)": "≤ -4.2"}
{"variant": "C27A C85A G86U A91C U101A C118G", "polymerase ribozyme fitness (log ratio)": "≤ -4.2"}
{"variant": "C27A G46U G50U U56A G70C U101G", "polymerase ribozyme fitness (log ratio)": "≤ -4.2"}
{"variant": "C27A G74A C76G G86C G128A C129U U144C", "polymerase ribozyme fitness (log ratio)": "≤ -4.2"}
{"variant": "A28C G80C C87G", "polymerase ribozyme fitness (log ratio)": "≤ -4.2"}
{"variant": "A26U U56A", "polymerase ribozyme fitness (log ratio)": -2.17}
{"variant": "C27U A28G A60G A98U G100A U135G", "polymerase ribozyme fitness (log ratio)": "≤ -4.2"}
{"variant": "C27A U61A G86A", "polymerase ribozyme fitness (log ratio)": "≤ -4.2"}
{"variant": "C27U G46A C75A A91U G94A", "polymerase ribozyme fitness (log ratio)": "≤ -4.2"}
{"variant": "A26U G65A A66U U77C C96U A106U A107U C132U U139A G143C U148A", "polymerase ribozyme fitness (log ratio)": "≤ -4.2"}
{"variant": "C27U G58A A60G G84U", "polymerase ribozyme fitness (log ratio)": -1.42}
{"variant": "C27U C32G C36U C87G", "polymerase ribozyme fitness (log ratio)": "≤ -4.2"}
{"variant": "C27A C79A G84A G86U", "polymerase ribozyme fitness (log ratio)": "≤ -4.2"}
{"variant": "C27U C35A G133U C149G", "polymerase ribozyme fitness (log ratio)": "≤ -4.2"}
{"variant": "C27U A138G", "polymerase ribozyme fitness (log ratio)": -3.72}
{"variant": "C27U C43U C95U A119U G143C U144C", "polymerase ribozyme fitness (log ratio)": -4.15}
{"variant": "C27G A28C G48A U55A G68C C87U C108G", "polymerase ribozyme fitness (log ratio)": "≤ -4.2"}
{"variant": "C27U U53A U61A C69G G88C", "polymerase ribozyme fitness (log ratio)": "≤ -4.2"}
{"variant": "C27A A28U C38U A39U A47U", "polymerase ribozyme fitness (log ratio)": "≤ -4.2"}
{"variant": "A28C U55A C75G", "polymerase ribozyme fitness (log ratio)": "≤ -4.2"}
{"variant": "C27A U44A G48A", "polymerase ribozyme fitness (log ratio)": "≤ -4.2"}
{"variant": "A28G A107G U144C", "polymerase ribozyme fitness (log ratio)": "≤ -4.2"}
{"variant": "C27U G58C C123U", "polymerase ribozyme fitness (log ratio)": -1.57}
{"variant": "A28G G42C C43A U55A", "polymerase ribozyme fitness (log ratio)": "≤ -4.2"}
{"variant": "A28C A41C C95A G128A G140C G143A", "polymerase ribozyme fitness (log ratio)": "≤ -4.2"}
{"variant": "C27G C87A", "polymerase ribozyme fitness (log ratio)": "≤ -4.2"}
{"variant": "C27G C87U", "polymerase ribozyme fitness (log ratio)": -3.97}
{"variant": "A28C C54A C95A C105U U145A", "polymerase ribozyme fitness (log ratio)": "≤ -4.2"}
{"variant": "C27G U45A G48U A91C", "polymerase ribozyme fitness (log ratio)": "≤ -4.2"}
{"variant": "C27G", "polymerase ribozyme fitness (log ratio)": -3.12}
{"variant": "C27A", "polymerase ribozyme fitness (log ratio)": -2.95}
{"variant": "C27U", "polymerase ribozyme fitness (log ratio)": -1.13}
{"variant": "A28G U53A", "polymerase ribozyme fitness (log ratio)": -3.62}
{"variant": "C27U C76U", "polymerase ribozyme fitness (log ratio)": -1.42}
{"variant": "C27U C76A", "polymerase ribozyme fitness (log ratio)": -2.31}
{"variant": "A28C U61A G88A", "polymerase ribozyme fitness (log ratio)": "≤ -4.2"}
{"variant": "C27G C63A C85U C87A G136A A138C", "polymerase ribozyme fitness (log ratio)": "≤ -4.2"}
{"variant": "C27A A52G G128U C129U C131G A147U", "polymerase ribozyme fitness (log ratio)": "≤ -4.2"}
{"variant": "A28C A64U G84A C85G", "polymerase ribozyme fitness (log ratio)": "≤ -4.2"}
{"variant": "C27U C38U A52U C85G G88U U102G", "polymerase ribozyme fitness (log ratio)": "≤ -4.2"}
{"variant": "C27A G86U U144A", "polymerase ribozyme fitness (log ratio)": "≤ -4.2"}
{"variant": "C27G C51U", "polymerase ribozyme fitness (log ratio)": -3.97}
{"variant": "A28G G34A G83C C118G", "polymerase ribozyme fitness (log ratio)": "≤ -4.2"}
{"variant": "A28G C36U", "polymerase ribozyme fitness (log ratio)": "≤ -4.2"}
{"variant": "C27U U31A G48U C85U", "polymerase ribozyme fitness (log ratio)": -2.25}
{"variant": "C27U G84A A89G", "polymerase ribozyme fitness (log ratio)": -3.59}
{"variant": "C27G A28G C69G C93G C95U", "polymerase ribozyme fitness (log ratio)": "≤ -4.2"}
{"variant": "A28C C36U A39U U55A A66U C79U A91U C93A", "polymerase ribozyme fitness (log ratio)": "≤ -4.2"}
{"variant": "A28C C51U C57A A73U C87G U101G A121U", "polymerase ribozyme fitness (log ratio)": "≤ -4.2"}
{"variant": "A28G A49U U56A A66U U90G A106U C108G A119G", "polymerase ribozyme fitness (log ratio)": "≤ -4.2"}
{"variant": "A28C U82A", "polymerase ribozyme fitness (log ratio)": "≤ -4.2"}
{"variant": "C27A G71U", "polymerase ribozyme fitness (log ratio)": "≤ -4.2"}
{"variant": "C27A U90G A107U", "polymerase ribozyme fitness (log ratio)": "≤ -4.2"}
{"variant": "A28G A49G G50A C87G", "polymerase ribozyme fitness (log ratio)": "≤ -4.2"}
{"variant": "C27A A66C A73C G92U U148C", "polymerase ribozyme fitness (log ratio)": "≤ -4.2"}
{"variant": "C27U A66G G88A G136A", "polymerase ribozyme fitness (log ratio)": "≤ -4.2"}
{"variant": "C27U A39C G83A", "polymerase ribozyme fitness (log ratio)": "≤ -4.2"}
{"variant": "C27U A47C G128U", "polymerase ribozyme fitness (log ratio)": "≤ -4.2"}
{"variant": "C27G A28C A41U A91G C93U", "polymerase ribozyme fitness (log ratio)": "≤ -4.2"}
{"variant": "C27U C95U U102A", "polymerase ribozyme fitness (log ratio)": -2.66}
{"variant": "A28G G50C A122G U145C U148A", "polymerase ribozyme fitness (log ratio)": "≤ -4.2"}
{"variant": "A26U U33A A47G G62A G94U C105U A110U", "polymerase ribozyme fitness (log ratio)": "≤ -4.2"}
{"variant": "A28C U61A U134A U148C", "polymerase ribozyme fitness (log ratio)": "≤ -4.2"}
{"variant": "C27G G65A", "polymerase ribozyme fitness (log ratio)": "≤ -4.2"}
{"variant": "A28G G94A", "polymerase ribozyme fitness (log ratio)": -3.42}
{"variant": "A28C G67A G100C A119G C131U U145G", "polymerase ribozyme fitness (log ratio)": "≤ -4.2"}
{"variant": "A28C C85A", "polymerase ribozyme fitness (log ratio)": "≤ -4.2"}
{"variant": "A28C A30G C93U C103U", "polymerase ribozyme fitness (log ratio)": -4.06}
{"variant": "C27A U55G A66U C72U U78G C79U A91C C105U", "polymerase ribozyme fitness (log ratio)": "≤ -4.2"}
{"variant": "C27U U78A C79G A91C C118G", "polymerase ribozyme fitness (log ratio)": "≤ -4.2"}
{"variant": "C27A A49U C87A U134C G141A", "polymerase ribozyme fitness (log ratio)": "≤ -4.2"}
{"variant": "C27G C72A C96A A107U", "polymerase ribozyme fitness (log ratio)": "≤ -4.2"}
{"variant": "A28G C93U U127C", "polymerase ribozyme fitness (log ratio)": "≤ -4.2"}
{"variant": "C27A C63A G80C C85G A119C U144A", "polymerase ribozyme fitness (log ratio)": "≤ -4.2"}
{"variant": "C27U G68C A89G C93A A110G G136C", "polymerase ribozyme fitness (log ratio)": "≤ -4.2"}
{"variant": "C27A U82G C87G G94A U135A", "polymerase ribozyme fitness (log ratio)": "≤ -4.2"}
{"variant": "A26U U61A G71C C79U A98G U151A", "polymerase ribozyme fitness (log ratio)": "≤ -4.2"}
{"variant": "A26U G59A G83A C87G C93G A97G U104C U139C", "polymerase ribozyme fitness (log ratio)": "≤ -4.2"}
{"variant": "A28C U78G", "polymerase ribozyme fitness (log ratio)": "≤ -4.2"}
{"variant": "A26U U78A C96A C116U U146C", "polymerase ribozyme fitness (log ratio)": "≤ -4.2"}
{"variant": "A28G C116U", "polymerase ribozyme fitness (log ratio)": -3.63}
